Measurements: paper PMC3591319 (PLoS Pathogens, 2013)

Experiments:
[1] = target: gp140-92UG037 (recombinant Env gp140 of HIV-1 strain 92UG037) (HIV-1 clade A (92UG037))
[2] = target: gp140-92UG037 (recombinant Env gp140 of HIV-1 strain 92UG037) (HIV-1 clade A (92UG037)); assay: SPR; Biacore T100; gp140-92UG037 immobilised on CM-5; single concentration injections of 100 nM VHH for 60 s; two-state reaction fit
[3] = target: gp140-92UG037 (recombinant Env gp140 of HIV-1 strain 92UG037) (HIV-1 clade A (92UG037)); assay: SPR; Biacore T100; gp140-92UG037 immobilised to 1500 RU on CM-5; VHH injected at 6.25, 25, 100 and 400 nM for 60 s; 10 mM HEPES, 150 mM NaCl, pH 7.4, 0.005% Tween-20; two-state reaction fit (2H10), heterogeneous ligand and two-state fits (bi-2H10)
[4] = target: gp41INT (soluble form of the fusion intermediate conformation of gp41) (not stated | HIV-1); assay: SPR; Biacore 3000; gp41INT or gp41 528-683 immobilised to 1000 RU on CM-5; VHH injected 1 to 200 nM for 150 s; 10 mM HEPES, 150 mM NaCl, pH 7.4, 50 uM EDTA, 0.005% P-20; 1:1 Langmuir fit, or separate association and dissociation fits for 2H10 and 2H10-W100A on gp41INT
[5] = target: gp140-92UG037 (recombinant Env gp140 of HIV-1 strain 92UG037) (HIV-1 clade A (92UG037)); assay: SPR
[6] = target: gp41 528-683 (potential late fusion intermediate conformation of gp41) (HIV-1) (UniProt P04578); assay: SPR; Biacore 3000; […]; 10 mM HEPES, 150 mM NaCl, […]; 1:1 Langmuir fit, […]
[7] = target: T1, linear gp41 MPER peptide 655KNEQELLELDKWASL669 (HIV-1 clade B (HXB2 sequence)); assay: ITC; 25 C; 10 uM 2H10 in the cell, about 100 uM peptide in the syringe; 20 mM HEPES pH 7.4, 100 mM NaCl; single binding site model; details: both partners purified
T1 chain: KNEQELLELDKWASL

[8] = target: T2, gp41CHRTM (HIV-1 gp41 C-terminal heptad repeat, MPER and transmembrane regions) (HIV-1 clade B (HXB2), UniProt P04578); assay: ELISA; details: both partners purified
T2 construct: also called gp41 proteoliposomes; gp41CHRTM proteoliposomes

Q: With “2H10 (llama anti-gp41 MPER VHH, monovalent, myc/His-tagged)” as the molecule, how does the IC50 of neutralisation of HIV-1 92UG037.A9 (molecular clone) in TZM-bl cells [1] read?
A: > 50 µg/mL

Q: What about the IC50 of neutralisation of pseudovirus 92UG0378 in TZM-bl cells [1] of the same molecule?
A: > 50 µg/mL

Q: What about the Kd [2] of the same molecule?
A: 8 nM

Q: And the Kd [3]?
A: 4 nM

Q: What about the Kd [4] of the same molecule?
A: 29 nM

Q: 2H10-R71S (VHH) was tested. Which Kd [5] did it give?
A: 18.7 nM

Q: Which Kd [5] does the source give for 2H10-S29F (VHH) here?
A: 5.5 nM

Q: With 2H10-W100A (VHH) as the molecule, how does the Kd [5] read?
A: 10.1 nM

Q: For “bi-2H10 with 15GS linker (bivalent 2H10) (VHH)”, which IC50 of neutralisation of HIV-1 92UG037.A9 (molecular clone) in TZM-bl cells [1] is on record?
A: 2.4 µg/mL

Q: And the IC50 of neutralisation of pseudovirus 92UG0378 in TZM-bl cells [1]?
A: 4.66 µg/mL

Q: What about the Kd [6] of the same molecule?
A: 1.1 nM

Q: What about the Kd [3] of the same molecule?
A: 0.15 nM

Q: What about the Kd [4] of the same molecule?
A: 2.5 nM

Q: Which IC50 of neutralisation of HIV-1 92UG037.A9 (molecular clone) in TZM-bl cells [1] does the source give for “bi-2H10 with 17GS linker (bivalent 2H10) (VHH)” here?
A: 28 µg/mL

B1: 2H10 (VHH without 6his-tag or myc tag) (VHH)
VHH: EVQLVESGGGLVQPGGSLRLSCAASGSISSVDVMSWYRQAPGKQRELVAFITDRGRTNYKVSVKGRFTISRDNSKNMVYLQMNSLKPEDTADYLCRAESRTSWSSPSPLDVWGRGTQVTVSS
Q: How did the Kd [7] turn out when B1 was run?
A: 35 nM

B2: 2H10 (llama anti-gp41 MPER VHH, monovalent, myc/His-tagged) (VHH)
VHH: B1 VHH
notes: also called 2H10 monohead; VHH 2H10
Q: Does B2 bind [8]?
A: binds
